This is an account of results in patent publication US20240424062A1 (MEDERIS DIABETES, published 2024).

Holding throughout (assay): cell-based or functional assay
In assay [1] the target is T1, GLP-1 receptor (murine cell line) (murine, UniProt O35659 22-463).
T1 sequence (looked up): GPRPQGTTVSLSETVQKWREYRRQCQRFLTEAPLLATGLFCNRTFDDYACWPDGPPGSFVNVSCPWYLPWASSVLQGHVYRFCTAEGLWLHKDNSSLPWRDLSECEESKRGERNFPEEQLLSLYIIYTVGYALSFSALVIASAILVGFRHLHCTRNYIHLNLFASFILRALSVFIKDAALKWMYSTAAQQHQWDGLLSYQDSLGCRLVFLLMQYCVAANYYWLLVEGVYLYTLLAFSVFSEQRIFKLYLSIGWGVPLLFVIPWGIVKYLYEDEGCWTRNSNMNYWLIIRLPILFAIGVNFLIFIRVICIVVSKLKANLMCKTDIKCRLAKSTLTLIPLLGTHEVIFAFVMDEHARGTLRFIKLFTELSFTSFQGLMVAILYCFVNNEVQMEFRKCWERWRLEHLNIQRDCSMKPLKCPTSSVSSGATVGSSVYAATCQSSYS

Assay [2] deals with glucagon receptor (human, cloned into CHO cells) (human, UniProt P47871 26-477).
Assay [3] has as its target GLP-1 receptor (human, cloned into CHO cells) (human, UniProt P43220 24-463).

glucagon receptor (human, cloned into CHO cells), sequence (P47871 26-477): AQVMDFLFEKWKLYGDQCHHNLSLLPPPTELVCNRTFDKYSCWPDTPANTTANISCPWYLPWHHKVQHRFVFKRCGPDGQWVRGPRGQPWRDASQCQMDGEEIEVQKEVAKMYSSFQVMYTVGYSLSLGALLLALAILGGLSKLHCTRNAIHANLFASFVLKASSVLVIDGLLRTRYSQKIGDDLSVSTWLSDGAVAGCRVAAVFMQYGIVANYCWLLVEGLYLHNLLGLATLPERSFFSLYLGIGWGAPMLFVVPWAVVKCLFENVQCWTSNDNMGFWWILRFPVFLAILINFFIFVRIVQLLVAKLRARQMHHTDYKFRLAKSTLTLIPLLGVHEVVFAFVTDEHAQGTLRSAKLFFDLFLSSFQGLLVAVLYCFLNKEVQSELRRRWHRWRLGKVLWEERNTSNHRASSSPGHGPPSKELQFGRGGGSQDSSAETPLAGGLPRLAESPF

B1: EU-A391 (peptide)
peptide: HXQGTXTSDYSKYLDXX
modifications: not fully specified; 1-dodecyl alkyl glycoside surfactant on a linker residue (position not given)
Take B1: the “EC50, cAMP stimulation in cells (Cerep)” value in assay [1] is 420 nM.

B2: EU-A992 (peptide)
peptide: HXQGTFTSDYSKYLDXQAAXEFIXWLLQT
modifications: not fully specified; Aib at 2; Glu*16 and Lys*20 cyclized through their side chains to a lactam; Lys(N-omega(1-octyl beta-D-glucuronyl)) at 24; C-terminal amide (NH2)
Turning to B2, the figures for the “EC50 cAMP (DiscoveRx)” value in assay [2] and in assay [3] were 0.019 nM and 0.009 nM, respectively.
